This note sets out measurements from paper PMC4756812, “ZFP57 recognizes multiple and closely spaced sequence motif variants to maintain repressive epigenetic marks in mouse embryonic stem cells”.

The target in data set [1] is T1, MBP-ZFP57 DNA binding domain (Glu87-Ala195) (Mus musculus, UniProt Q8C6P8 87-195).
T1 sequence: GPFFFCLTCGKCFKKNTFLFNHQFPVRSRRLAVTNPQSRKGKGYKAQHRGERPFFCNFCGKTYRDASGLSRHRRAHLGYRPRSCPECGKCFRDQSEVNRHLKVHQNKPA
Description: EMSA; EMSA: 25 pmol protein, 2.5 pmol dsDNA, 25 mM HEPES pH 7.9, 50 mM KCl, 6.25 mM MgCl2, 5% glycerol, on ice 10 min; 5% PAGE, SYBR Green stain. The following applies: protein: recombinant; blunt. Background: A gel shift assay detects complexes by their altered migration in electrophoresis.

Data set [2] concerns the target T1, MBP-ZFP57 DNA binding domain …. Description: EMSA; lower efficiency than control TGCCGC; EMSA: 25 pmol protein, 2.5 pmol dsDNA, 25 mM HEPES pH 7.9, 50 mM KCl, 6.25 mM MgCl2, 5% glycerol, on ice 10 min; 5% PAGE, SYBR Green stain. The following applies: protein: recombinant; blunt.

B1: Methylated 1G (dsDNA)
DNA 1: GTAATATGGCCGCAGTAATA
DNA 2: TATTACTGCGGCCATATTAC
modifications: 5mC at top 11 and bottom 9
For B1, in data set [1], the binding result is “binds”.

B2: Methylated Ston2 JF1 (dsDNA)
DNA 1: CTGGGGCGGCAGTTGCCGCAGATGG
DNA 2: CCATCTGCGGCAACTGCCGCCCCAG
modifications: 5mC at top 7, 17; methylated bottom strand not in material
Take B2: the binding result in data set [1] was “binds”.

B3: Methylated Commd1 (dsDNA)
DNA 1: GTAACTGCGGCCGCCCCACA
DNA 2: TGTGGGGCGGCCGCAGTTAC
modifications: 5mC at top 8, 12 and bottom 12, 8 (5'-based)
Regarding B3, the binding result in data set [2] is listed as “binds”.

B4: Methylated Control (dsDNA)
DNA 1: GTAATATTGCCGCAGTAATA
DNA 2: TATTACTGCGGCAATATTAC
modifications: 5mC at top 11 and bottom 9 (5'-based; printed Z)
For B4, the binding result in data set [1] was “binds”.
